Results as given in article doi:10.1101/2022.02.17.480908.

Target: urea pre-unfolded MLucV (stable small aggregates) (firefly)
Experiment: SEC-RALS

- stoichiometry N: 12
Substance: urea pre-unfolded MLucV (stable small aggregates)
